This is an account of results in patent US20240299529A1.

The assay addresses human immunoglobulin G (hIgG) (human). Nature of the assay: sandwich ELISA, hIgG coated on plate, CD64 titrated, monovalent fit.

With “Flag-CD64 (from UniProt P12314 16-374) (receptor)”, the equilibrium dissociation constant (Kd) turned out to be 0.0536 nM.
The substance “recombinant wild-type CD64 (from UniProt P12314 16-374) (receptor)” registered a Kd of 0.0456 nM.
